Where no end group is shown, it is not given here.
Experiments:
MCF7-Neo cells = assay: Microinjection of ANK peptide then nocodazole, mitotic arrest/apoptosis count; format: cell-based; conditions: cells without ANK injection, 0.5 μM nocodazole for 24 hours
Procedure: ANK peptide interference with SNCG-BubR1 association in vivo was examined in a stable breast cancer cell line MCF7 expressing SNCG (MCF7-SNCG) and a control SNCG negative cell line (MCF7-Neo). […] Significant numbers of cells survived after treatment with the ANK peptide by microinjection in both cell lines. After microinjection, cells were treated with 0.5 μM nocodazole for 24 hours and the fraction of mitotically arrested cells was counted.
MCF7-SNCG and MCF-Neo were grown to 80% confluence, split with trypsin and seeded on a 22 mm glass coverslip treated with human fibronectin ([…]) into 60 mm diameter dishes containing cell maintenance medium for 24 hours and utilized for the experiments. In initial experiments ANK peptide (5, 10 or 100 μM) was microinjected. In all further experiment to date, ANK peptide (10 μM), together with goat IgG (1 mg/ml) and fluoroscein isothiocyanate (FITC, 5 mg/ml; Molecular Probes) into the MCF7-SNCG or MCF7-Neo cells under a 40× magnification of phase contrast microscope (Carl Zeiss Inc.) using a pressure injection system (Femtojet, Eppendorf). To exclude the possibility that microinjection might affect cell cycle and proliferation, MCF7-Neo and MCF7-SNCG were microinjected with goat IgG as a control. Injections were done at a constant flow setup by varying the injection pressure Pc between 40-70 units. The microscope stage was kept at 37° C. using thermal control device (Tempcontrol-37-2 Digital). Approximately 25-30 cells were microinjected in each experiment (n=3). Cells were quickly incubated to revive. […]
For the immunofluorescence experiments, cells were fixed in 0.5% buffered paraformaldehyde for 8 minutes at room temperature. […] Cells were scored by identifying cells containing Alexa Fluor 488 excited at 488 nm, and the emission measured at 500-535 nm; DAPI was excited at 345 nm and the emission was measured at 445 nm. […] Mitotic index was determined as described by Gupta et al. (Oncogene 2003 22:7593-7599) and Inaba et al. Breast Cancer Res. Treat. […]

SNCG = SNCG (Homo sapiens, UniProt O76070); assay: Co-immunoprecipitation of EGFP-ANK deletion peptides with anti-SNCG antibody; format: binding; design: expressed in transfected cells; host or cells: MCF7-SNCG (MCF7 stably expressing SNCG); conditions: MCF7-neo and MCF7-SNCG clones transfected with pEGFP-ANK deletion peptide plasmids
Sequence of SNCG (O76070 whole entry): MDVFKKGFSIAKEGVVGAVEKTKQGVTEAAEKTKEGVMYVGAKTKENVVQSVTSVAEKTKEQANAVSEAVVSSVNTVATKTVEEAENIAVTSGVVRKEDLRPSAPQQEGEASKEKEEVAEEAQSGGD

[1] = target: SNCG expressed in cells (MCF7-SNCG, T47D, or COS7 transfected with pCI-SNCG) (UniProt O76070 1-127, limits assumed); assay: cell-based or functional assay
Sequence of SNCG expressed in cells (MCF7-SNCG, T47D, or COS7 transfected with pCI-SNCG) (O76070 whole entry, stated change not applied, the tested form may be a part): as the sequence (O76070 whole entry) above

[2] = target: T1, glutathione S-transferase (GST)-SNCG fusion protein (human, UniProt O76070 1-127); assay: ITC, ANK peptide titrated into GST-SNCG, sequential binding site model, first binding site
T1 construct: Expressed in E. coli BL21 (DE3), eluted with reduced glutathione; Used as analyte in SPR, in the cell in ITC and as bait in the GST pull-down; not shown: glutathione S-transferase tag encoded by the pGEX-4T-3 vector (Amersham Biosciences); vector linker with thrombin site between GST and the BamH1 site
T1 sequence (O76070 whole entry, the tested form may be a part): as the sequence (O76070 whole entry) above

[3] = target: T2, synuclein-gamma (SNCG), recombinant, released from GST-SNCG by thrombin (human, UniProt O76070 1-127); assay: intrinsic tyrosine fluorescence of 30 µM SNCG titrated with ANK peptide
T2 construct: 15N-labelled for NMR; also called native SNCG; Breast Cancer Specific Gene 1
T2 sequence (O76070 whole entry): as above

[4] = target: T1, glutathione S-transferase (GST)-SNCG …; assay: SPR, ANK peptide immobilised, GST-SNCG analyte, global fit, two-phase reaction (conformation change) model, kd2
[5] = target: T1, glutathione S-transferase (GST)-SNCG …; assay: SPR, ANK peptide immobilised, GST-SNCG analyte, global fit, two-phase reaction (conformation change) model, kd1
[6] = target: T3, glutathione S-transferase (GST) (UniProt P08515 1-218 = GST); assay: SPR (BIACORE 3000), ANK peptide immobilised, GST as analyte
T3 construct: Control for GST-SNCG in SPR
T3 sequence (P08515 whole entry): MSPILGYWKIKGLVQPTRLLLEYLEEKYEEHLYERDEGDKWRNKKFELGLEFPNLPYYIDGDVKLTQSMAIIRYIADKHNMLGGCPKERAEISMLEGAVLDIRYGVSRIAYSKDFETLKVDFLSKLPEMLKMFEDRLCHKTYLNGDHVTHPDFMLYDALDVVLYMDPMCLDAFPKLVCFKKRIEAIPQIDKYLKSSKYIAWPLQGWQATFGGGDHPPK

[7] = target: T1, glutathione S-transferase (GST)-SNCG …; assay: SPR, ANK peptide immobilised, GST-SNCG analyte, apparent overall Kd

COC(=O)Nc1nc2ccc(C(=O)c3cccs3)cc2[nH]1 [nocodazole, reference compound]
degree of mitotic arrest in MCF7-Neo cells as compared to MCF7-SNCG cells (MCF7-Neo cells): significantly higher degree of mitotic arrest

EGFP-ANK deletion peptide P8: EGFP fusion of deletion peptide P8 GANVTMQN, expressed from pEGFP-C2 plasmid in cells (not fully specified (N-terminus); also: EGFP fusion protein (recombinant))
interaction with SNCG by co-IP (SNCG): identified to interact

EGFP-ANK deletion peptide P12: EGFP fusion of deletion peptide P12 GNSALHVASQHG, expressed from pEGFP-C2 plasmid in cells (not fully specified (N-terminus); also: EGFP fusion protein (recombinant))
interaction with SNCG by co-IP (SNCG): identified to interact

KGNSALHVASQHGHLGCIQTLVRYGANVTMQNHG (other, not shown: large carriers, not fully specified (N-terminus); also: EGFP fusion protein (recombinant)) [enhanced green fluorescent protein (EGFP)-ANK fusion protein]
apoptotic cell populations (DAPI staining) after paclitaxel [1]: 5 fold | apoptotic/dead cell population, flow cytometric cell cycle analysis after 0.5 µM paclitaxel, MCF7-SNCG cells [1]: ~4 fold | positive phosphorylated histones (anti-phospho-H3 staining, flow cytometry), MCF7-SNCG cells [1]: 3.5 fold

B1: ANK peptide KGNSALHVASQHGHLGCIQTLVRYGANVTMQNHG (SEQ ID NO:1) (peptide)
peptide: Ac-KGNSALHVASQHGHLGCIQTLVRYGANVTMQNHG-NH2
notes: For SPR it was immobilised on a CM5 chip by ligand thiol coupling; also called ankyrin repeat-like peptide
Kd [2]: 70 µM | ΔH [2]: 2.17 kcal/mol | Kd [3]: ~100 µM | koff [4]: 0.000802 s⁻¹ | koff [5]: 0.014 s⁻¹ | binding result [6]: no binding | Kd [7]: 73.4 µM

Source: patent publication US7897568B2, “Compositions for treatment of cancer” (priority 2006, dated 2011)
